From US20070116718A1

Legend:
[1] = biological target: bacteriophage displaying the DO11.10 scTCR/gene VIII fusion protein (vector pKC51) (murine; fd tet bacteriophage); experiment: phage panning on biotin antibody on neutrAvidin wells, phage diluted 1:50,000 in irrelevant phage
[2] = biological target: single-chain MHC class II I-A^d complex with OVA 323-339 peptide, immobilized (chicken; murine) (UniProt P01012); experiment: cell-based or functional assay

Sequence of bacteriophage displaying the DO11.10 scTCR/gene VIII fusion protein (vector pKC51) (murine; fd tet bacteriophage) (main, as listed by the source): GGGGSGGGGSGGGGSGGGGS

| Substance | fold enrichment after a single round of panning [1] [fold] | level of IL-2 inhibition, DO11.10 group against gD12 hybridoma group [2] [fold] |
| --- | --- | --- |
| anti-V-β8.2 monoclonal antibody MR5-2 (PharMingen) | 5000 |  |
| bacteriophage displaying the DO11.10 scTCR/gene VIII fusion protein (vector pKC51) |  | 8 to 10 |
| hamster anti-mouse αβ TCR antibody H57-597 (ATCC HB-218) | 5000 |  |
